Measured values from patent publication US20240092892A1 (BIO THERA SOLUTIONS, published 2024).

B1: H239H-2a-K-6a (antibody, human IgG1, kappa, V domains shown)
VH: EVQLLESGGGLVQPGGSLRLSCAASGFTFSDYGMHWVRQAPGKGLEWVAYISRGRSTTYSTDTVKGRFTISRDSSKNTLYLQMNSLRAEDTAVYYCARGSYYGNAMDYWGQGTLVTVSS
VL: DIVMTQSPDSLAVSLGERATINCKSSQSLLNSGNQRNYLTWYQQKPGQPPKLLIYWASTRESGVPDRFSGSGSGTDFTLTISSLQAEDVAVYYCQSAYSYPFTFGGGTKLEIKR
notes: Humanized antibody derived from CH239H-2-K-6, human IgG1/kappa constant regions; also called H239H-2a-K-6α
B2: H239H-2b-K-6a (antibody, human IgG1, kappa, V domains shown)
VH: EVQLLESGGGLVQPGGSLRLSCAASGFTFSDYGMHWVRQAPGKGLEWVAYISRGRSTTYSTDTVKGRFTISRDNSKNTLYLQMNSLRAEDTAVYYCARGSYYGNAMDYWGQGTLVTVSS
VL: DIVMTQSPDSLAVSLGERATINCKSSQSLLNSGNQRNYLTWYQQKPGQPPKLLIYWASTRESGVPDRFSGSGSGTDFTLTISSLQAEDVAVYYCQSAYSYPFTFGGGTKLEIKR
notes: Humanized antibody derived from CH239H-2-K-6, human IgG1/kappa constant regions; also called H239H-2b-K-6α
B3: IMAB362 (antibody, V domains shown)
VH: QVQLQQPGAELVRPGASVKLSCKASGYTFTSYWINWVKQRPGQGLEWIGNIYPSDSYTNYNQKFKDKATLTVDKSSSTAYMQLSSPTSEDSAVYYCTRSWRGNSFDYWGQGTTLTVSS
VL: DIVMTQSPSSLTVTAGEKVTMSCKSSQSLLNSGNQKNYLTWYQQKPGQPPKLLIYWASTRESGVPDRFTGSGSGTDFTLTISSVQAEDLAVYYCQNDYSYPFTFGSGTKLEIKR

How the values were obtained:
[1] = molecular target: T1, human CLDN18.1 (human, UniProt P56856 1-261); assay: flow cytometry on CHO-CLDN18.1 cells
T1 construct: also called CHO-CLDN18.1 cells
T1 sequence (P56856 whole entry): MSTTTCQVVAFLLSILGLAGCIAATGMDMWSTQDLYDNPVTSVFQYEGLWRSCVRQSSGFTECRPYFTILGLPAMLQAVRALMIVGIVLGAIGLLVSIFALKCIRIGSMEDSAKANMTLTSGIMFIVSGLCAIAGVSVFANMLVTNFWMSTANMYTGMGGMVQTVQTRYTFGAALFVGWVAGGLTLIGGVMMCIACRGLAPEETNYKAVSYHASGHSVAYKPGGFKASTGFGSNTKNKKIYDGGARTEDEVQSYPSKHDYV
Procedure: Flow cytometry was used to detect the binding capacity of anti-CLDN18.2 antibodies to cells expressing CLDN18.2, and the specificity of not binding to CLDN18.1 of the antibody was further detected. The experimental procedure overview was as follows: CLDN18.2 positive cells (KATOIII or CHO-CLDN18.2) and negative cells (CHO-CLDN18.1) were collected, washed once with PBS, resuspended in PBS, and plated on a 96-well V-bottom plate (Cat. No. 3897, Costar) at 0.1 million cells/50 μL/well. The antibody was pre-diluted to 333.2 nM with PBS, then diluted 2-fold with 9 gradients, added at 50 μL/well to the cells in the 96-well V-bottom plate described above, and mixed well (final antibody concentrations: 166.6, 83.3, 41.6, 20.8, 10.4, 5.2, 2.6, 1.3, 0.65, and 0.325 nM). The mixture was incubated at 4° C. for 1 h and washed twice with PBS. Then 100 μL of 1:500 diluted goat anti-human IgG-Fc PE fluorescent secondary antibody (Cat. No. 12-4998-82, eBioscience) was added. The mixture was incubated at 4° C. for 1 h, washed twice with PBS, and analyzed with a CytoFLEX flow cytometer (model: AOO-1-1102, Beckman). [0192]

[2] = molecular target: human CLDN18.2 (human); assay: cell-based or functional assay

Binder | binding result [1] | ADCC Reporter Bioassay (Jurkat-NFAT-luc-FcγRIIIa effector cells, luciferase) EC50 [2] [nM] | CDC cell killing rate (CCK-8, 5% human serum complement) IC50 [2] [nM]
B1 | no binding | – | –
B2 | no binding | 0.0625 | 0.291
B3 | – | 0.795 | 5.87
